Assay results taken from paper PMC11142274 (bioRxiv, 2024).

B1: anti-CNPase nanobody NbCNP 8C (VHH)
VHH: EVQLEESGGGLVQAGGSLTLSCAASGFTFDDYAMGWYRQAPGKERVGVSCISRTDGYTYYLDSVKGRFTISTDHAKHTVYLQMNNLKPDDTGLYYCAADADPEYGSRCPDPYYGMDYWGKGILVTVSS
B2: anti-CNPase nanobody NbCNP 10E (VHH)
VHH: EVQLEESGGGLVQPGGSLRLSCAVSGITLDDFGIGWFRQAPGKEREGVACISPGYEHIYYADSAKGRFTISRDNAKNTVYLQMNNLKPWDTGVYYCAADNDLPDRLWGGSDWSDPSPYDYWGQGTQVTVSS
B3: MaBP-10E (His6-maltose binding protein fusion of NbCNP 10E) (VHH)
VHH: B2 VHH
B4: iNbCNP 10E fused to mRuby3 (VHH)
VHH: B2 VHH
B5: anti-CNPase nanobody NbCNP 7E (VHH)
VHH: EVQLEESGGGWVHPGGSLRLSCAASGNVFGVNTMAWYRQAPGKQREQRELVASITDYGTTEYADSVKGRFTISGDNAKATVYLQMNSLKPEDTAVYYCNMDLTVMTATSSLYAYDYWGQGTQVTVSS
B6: anti-CNPase nanobody NbCNP 8D (VHH)
VHH: EVQLEESGGGLVQPGGSLRLSCAASGFTFSSYVMSWVRQAPGKGLEWVSDINSGGSRTYYTDSVKGRFTISRDNAKNTLYLQMNSLKPEDTAVYYCARDSLLSTRYLHTSERGQGTQVTVSS
B7: iNbCNP 8D fused to mRuby3 (VHH)
VHH: B6 VHH

Tests used:
full-length mouse CNPase [1] = biological target: T1, full-length mouse CNPase (Mus musculus, UniProt P16330); test: DSF thermal shift
[2] = biological target: T2, mouse CNPase catalytic domain (mouse, UniProt P16330); test: ITC
[3] = biological target: T2, mouse CNPase catalytic domain; test: SEC-SAXS
[4] = biological target: T2, mouse CNPase catalytic domain; test: SEC-SAXS; remark: listed apart in the source
full-length mouse CNPase [5] = biological target: T1, full-length mouse CNPase; test: enzyme inhibition kinetics
[6] = biological target: T3, Tom70-EGFP-CNPase-ALFAtag (Mus musculus (assumed)); test: co-localisation with a target anchored to mitochondria
T3 chain: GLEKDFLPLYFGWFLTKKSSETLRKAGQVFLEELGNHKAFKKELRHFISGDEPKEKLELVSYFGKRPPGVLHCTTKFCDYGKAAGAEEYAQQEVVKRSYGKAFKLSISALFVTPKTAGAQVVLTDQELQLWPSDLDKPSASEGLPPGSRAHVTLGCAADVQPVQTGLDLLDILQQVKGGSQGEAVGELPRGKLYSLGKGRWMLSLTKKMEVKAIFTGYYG

full-length mouse CNPase [7] = biological target: T1, full-length mouse CNPase; test: nanoDSF thermal shift

T1 sequence (P16330 whole entry, the tested form may be a part): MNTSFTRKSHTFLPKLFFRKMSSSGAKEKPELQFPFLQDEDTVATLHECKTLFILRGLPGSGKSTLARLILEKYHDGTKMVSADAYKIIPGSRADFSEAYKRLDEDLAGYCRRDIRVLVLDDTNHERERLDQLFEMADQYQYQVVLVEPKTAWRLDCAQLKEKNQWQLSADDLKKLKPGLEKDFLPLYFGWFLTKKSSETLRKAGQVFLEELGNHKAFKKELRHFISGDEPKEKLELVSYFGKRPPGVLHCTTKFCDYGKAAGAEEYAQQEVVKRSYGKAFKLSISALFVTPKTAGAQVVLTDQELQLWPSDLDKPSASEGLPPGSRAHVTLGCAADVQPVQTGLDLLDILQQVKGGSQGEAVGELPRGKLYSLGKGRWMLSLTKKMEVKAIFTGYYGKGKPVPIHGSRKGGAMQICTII

Binder | ΔTm of CNPase (full-length mouse CNPase [1]) [°C] | Kd [2] [nM] | dH [2] [kcal/mol] | stoichiometry N [2] | stoichiometry N [3] | stoichiometry N [4] | Ki (full-length mouse CNPase [5]) [nM] | binding result [6] | ΔTm of CNPase (full-length mouse CNPase [7]) [°C]
B1 | 9.2 | 16.6 | -7.07 | 0.914 | 1 |  |  |  | 
B2 | 4.2 | 9.8 | -12.1 | 0.804 |  | 2 molecules of CNPase per 10E molecule | 0.604 ± 0.0507 |  | 
B3 |  | 13.4 | -18.1 | 0.836 |  |  |  |  | 
B4 |  |  |  |  |  |  |  | binds | 
B5 | 2.1 | 83.3 | -14.2 | 0.863 | 1 |  |  |  | 
B6 | 18 |  |  |  |  |  |  |  | 17.7
B7 |  |  |  |  |  |  |  | binds | 
